Data from patent publication US9387267B2, “Iodine-containing radial-shaped macromolecular compounds, preparation method thereof and contrast media compositions for CT comprising the same” (KOREA RESEARCH INSTITUTE OF BIOSCIENCE AND BIOTECHNOLOGY, priority 2010, dated 2016).
Read-outs that look alike come from different tables or passages of the source.

Tests used:
[1] = system: Human epithelial cervical cancer (HeLa) cell line; assay type: cell-based; conditions: HeLa cells
Method: Human epithelial cervical cancer (HeLa) cell line was obtained from American Type Culture Collection (ATCC, Manassas, Va.) and maintained at 37° C. under a 5% carbon dioxide (CO2) atmosphere in Dulbecco's modified eagle medium (DMEM, Gibco) supplemented with 10% fetal bovine serum (FBS), 50 U/mL penicillin, and 50 μg/mL streptomycin. Stock solutions of PAMAM-PEG2000-TIPAA conjugate Compounds 1c-4c were prepared by dissolving 10 mg of each vacuum-dried solid sample in 1.0 mL of deionized water (Millipore Milli-Q) to make a 10 mg/mL solution. Each stock solution was sonicated briefly to ensure homogeneity. Serial dilutions were carried out using serum-free DMEM to prepare samples of the following concentrations: 1, 5, 10, 50, 100, and 500 μg/mL. HeLa cells were seeded in a flat bottomed 96-well plate (Corning Costar, Cambridge, Mass.) at a density of 1×10^3 cells per well and incubated for 24 hours at 37° C. under a 5% CO2 atmosphere to allow cell attachment. Cells were treated with 100 μL of each dilution or 100 μL of serum-free DMEM (as a control) per well and incubated at 37° C. under a 5% CO2 atmosphere for 24, 48, or 72 hours. The formulations were replaced with serum-free DMEM containing 5 mg/mL 3-(4,5-dimethylthiazol-2-yl)-2,5-diphenyltetrazolium bromide (MTT) and cells were incubated for additional 4 hours. MTT was removed by aspiration and DMSO (100 μL) was added to each well to dissolve the formazan crystals [Mosmann, T., J. Immunol. Methods 1983, 65, 55-63]. Assays were carried out in quadruplicates.

[2] = assay type: physicochemical
Method: (§1) Sample solutions for in vivo injections as CT contrast agents were prepared by dissolving each PAMAM-PEG2000-TIPAA conjugate (Compound 1c, 2c, 3c, or 4c) at 250 mg/mL in the sterilized 20 mM Tris buffer (242 mg tromethamine and 10 mg EDTA dissolved in 100 mL of deionized water (Millipore Milli-Q), pH 7.4). The resulting solution was sonicated briefly to ensure homogeneity and stored at 4° C., if not used immediately. Before the injection to the animal, the contrast agent solutions were removed from the fridge, warmed to room temperature, and agitated by vortex.
The results of the viscosity (30° C.) and osmolality measurements of the CT contrast media solutions of the present invention are summarized in the following Table 1.
In Table 1, the values are presented as the mean±standard deviation. Five independent measurements were made for each compound under the same conditions, and the mean and standard deviation were calculated after excluding the highest and lowest values (i.e., 3 data).

[3] = Micro-CT 2D X-ray snapshot imaging of contrast media solutions in tubes
Method: Prior to the in vivo injection of CT contrast media (250 mg/mL) including Compounds 1c, 2c, 3c, or 4c of Examples 1 to 4 prepared in the Preparation Step, 2D X-ray snapshot images of these solutions and two commercially available CT contrast media each for human or animal application were obtained using micro-CT to compare their relative X-ray absorption in tubes under the same conditions as a preliminary evaluation.
Overall, eight 250 μL-tubes were prepared each containing the following: 250 μL each of four CT contrast media prepared in the Preparation Step, 250 μL of “Fenestra VC”, 250 μL of “Iobrix”, 250 μL of 20 mM Tris buffer solution (pH 7.4, 0.1 mg/mL EDTA included) as a negative control group, and one empty tube as a negative control group. These eight tubes were then arranged side by side in parallel on the imaging bed of a NFR Polaris-G90 in vivo micro-CT scanner (manufacturer: NanoFocusRay), and 2D X-ray snapshot images were taken [imaging parameters: 60 kVp, 60 μA, 500 ms exposure time, field of view (FOV) 80.00×83.71 mm^2, 1.4× magnification].

C57BL/6 mice = assay: In vivo micro-CT imaging evaluation
Method: Specifically, 6 to 8 weeks old healthy male C57BL/6 mice (Orient Bio, Korea) having the weight typically ranging from 15 g to 22 g were used as small animals. Each mouse was not fed water and food starting from approximately 12 hours before the injection of the contrast medium until the completion of CT imaging at 4 hours post-injection. The mice were fed water and food immediately after the completion of CT imaging at 4 hours post-injection. Before the injection of the contrast media, each mouse was anaesthetized in an induction chamber by administering 3% isoflurane in oxygen for about 5 minutes. Subsequently, the mouse was placed onto the imaging bed of a NFR Polaris-G90 in vivo micro-CT scanner (NanoFocusRay, Korea) lying in a prone position, and then the baseline (i.e., pre-contrast) scan was performed as a negative control group while being anesthesized by administering 1.5% isoflurane in oxygen [imaging parameters: 60 kVp, 60 μA, 500 ms exposure time, 360° scan angle, 600 scan number, 512 slices (i.e., image number); FOV: 80.00×83.71 mm^2 for low resolution whole-body imaging (1.4× magnification), 33.94×35.52 mm^2 for mid resolution chest and abdominal imaging (3.3× magnification), and 26.67×27.90 mm^2 for high resolution brain imaging (4.2× magnification)]. Next, the tail vein of the mouse was expanded by immersing the tail in a warm water for about 30 to 60 seconds while maintaining the mouse under anesthesia by administering 1.5% isoflurane in oxygen, and the corresponding amount of each contrast medium (15 mL/kg for the contrast media including the compounds of Examples 1 to 4, 10 mL/kg for “Fenestra VC”, and 2.5 mL/kg for “Iobrix”) was slowly injected into the tail vein of each mouse. Immediately after the injection of the contrast medium, the mouse was placed onto the imaging bed of a micro-CT scanner lying in a prone position, and the CT scan was performed at the corresponding resolution (low, mid, or high) while being anesthesized by administering 1.5% isoflurane in oxygen. […]

[4] = Dissolving the compound in buffer solution for a contrast medium; assay type: physicochemical; conditions: concentration appropriate for CT imaging
Method: as §1

[5] = incubated for 72 hours, 500 μg/mL, MTT
[6] = 250 mg/mL in 20 mM Tris buffer pH 7.4, mean±standard deviation
[7] = 30° C., 250 mg/mL in 20 mM Tris buffer pH 7.4, mean±standard deviation
[8] = 250 μL in tube, 2D X-ray snapshot, 60 kVp, 60 μA, own media 250 mg/mL

| Substance | cell survival rate ([1]; human, 72 h, 500 µg/mL) [%] | Osmolality ([2]; pH 7.4) [mOsm/kg] | Viscosity ([2]; pH 7.4) [mPa · s] | X-ray transmission intensity [3] | cell survival rate [1, 5] [%] | Osmolality [2, 6] [mOsm/kg] | Viscosity [2, 7] [mPa · s] | X-ray transmission intensity [3, 8] | amount found in the kidney (C57BL/6 mice; mice, images at 1 hour after injection) | excretion (route and rate) (C57BL/6 mice; mice, tail vein injection, whole-body CT images) | thickness of contrast medium solution felt during the injection (C57BL/6 mice; during injection) | ease of dissolving in a buffer solution [4] |
| --- | --- | --- | --- | --- | --- | --- | --- | --- | --- | --- | --- | --- |
| G3 PAMAM-mPEG2000-TIPAA Conjugate [Example 3] | 88.4 | 225.75 ± 1.26 | 16.15 ± 0.53 | 826.5 |  |  |  |  |  |  |  |  |
| G1 PAMAM-mPEG2000-TIPAA Conjugate [Example 1] |  |  |  |  | 88.5 | 464.75 ± 3.59 | 15.32 ± 0.39 | 904.5 | a considerable amount thereof was found in the kidney within a relatively short period of time | mostly through kidney to bladder |  |  |
| G4 PAMAM-mPEG2000-TIPAA Conjugate [Example 4] |  |  |  |  | 87.9 | 242.00 ± 4.08 | 16.31 ± 0.61 | 827.0 |  |  | felt thicker than Compound 2c of Example 2 or Compound 3c of Example 3 | more difficult to dissolve |
| G2 PAMAM-mPEG2000-TIPAA Conjugate [Example 2] | 88.4 | 233.50 ± 9.75 | 16.47 ± 0.80 | 838.0 |  |  |  |  |  |  |  |  |
